Source: article PMC9067469

Assays:
Test in all cases: SPR
[1] = target: V3-pI(A)-N434A (human IgG1 Fc variant G236N/H268D/Q311R/A330K/D413K/N434A of the pH-dependent anti-l (human))
[2] = target: IgG1 (pH-dependent anti-latent myostatin antibody with wild-type human IgG1 constant region) (human)
[3] = target: V2 (human IgG1 Fc variant G236N/H268D of an anti-latent myostatin antibody) (human)
[4] = target: V3 (human IgG1 Fc variant G236N/H268D/A330K of the pH-dependent anti-latent myostatin antibody) (human)
[5] = target: V1 (human IgG1 Fc variant G236N of an anti-latent myostatin antibody) (human)
[6] = target: V3-N434A (human IgG1 Fc variant G236N/H268D/A330K/N434A of the pH-dependent anti-latent myostatin antibody) (human)

| Substance | relative binding per units (IgG1 = 1) (relative to IgG1) [1] | relative binding per units (IgG1 = 1) (relative to IgG1) [2] | further results |
| --- | --- | --- | --- |
| cynomolgus FcγRIIa1, extracellular region (receptor) | 1.97 | 1 | relative binding per units (IgG1 = 1) (relative to IgG1) [3]: 1.45; relative binding per units (IgG1 = 1) (relative to IgG1) [4]: 2 |
| human FcγRIa, extracellular region (from UniProt P12314 16-292) (receptor) |  |  | relative binding per units (IgG1 = 1) (relative to IgG1) [5]: 0.16 |
| cynomolgus FcγRIIIa(S), extracellular region (from UniProt Q8SPW2 17-208) (receptor) |  | 1 |  |
| human FcγRIIIa(F), extracellular region (from UniProt P08637 17-208) (receptor) |  | 1 |  |
| cynomolgus FcRn (from UniProt Q8SPV9 24-365) (receptor) |  |  | Kd [1]: 355 nM; Kd [2]: 1520 nM; Kd [6]: 526 nM |
| cynomolgus FcγRIIa3, extracellular region (receptor) | 2.76 | 1 | relative binding per units (IgG1 = 1) (relative to IgG1) [3]: 2.36; relative binding per units (IgG1 = 1) (relative to IgG1) [4]: 2.77 |
| cynomolgus FcγRIIIa(R), extracellular region (from UniProt Q8SPW2 17-208) (receptor) |  | 1 |  |
| cynomolgus FcγRIIa2, extracellular region (receptor) | 2.52 | 1 | relative binding per units (IgG1 = 1) (relative to IgG1) [3]: 1.89; relative binding per units (IgG1 = 1) (relative to IgG1) [4]: 2.56 |
| cynomolgus FcγRIIb, extracellular region (receptor) | 2.83 | 1 |  |
| cynomolgus FcγRIa, extracellular region (receptor) | 0.71 | 1 |  |
| human FcγRIIIa(V), extracellular region (from UniProt P08637 17-208) (receptor) |  | 1 |  |
